From patent US20220177587A1, “METHODS AND USES OF VARIANT CD80 FUSION PROTEINS AND RELATED CONSTRUCTS” (Alpine Immune Sciences, Inc., priority 2018, published 2022) come the findings set out here.

Assay [1] has as its target human CTLA-4 (human) (UniProt P16410). Description: flow cytometry, CHO cells expressing CTLA4.
Assay [2] concerns the target CD28 (human) (UniProt P10747). Description: flow cytometry, Jurkat cells (CD28).
Assay [3] has as its target PD-L1 (human) (UniProt Q9NZQ7). Description: flow cytometry, CHO cells expressing PD-L1.
For assay [4], the target named is PD-L1 (human) (UniProt Q9NZQ7).
Assay [5] has as its target CD28 (human) (UniProt P10747).

PD-L1 (human), sequence (Q9NZQ7 19-290): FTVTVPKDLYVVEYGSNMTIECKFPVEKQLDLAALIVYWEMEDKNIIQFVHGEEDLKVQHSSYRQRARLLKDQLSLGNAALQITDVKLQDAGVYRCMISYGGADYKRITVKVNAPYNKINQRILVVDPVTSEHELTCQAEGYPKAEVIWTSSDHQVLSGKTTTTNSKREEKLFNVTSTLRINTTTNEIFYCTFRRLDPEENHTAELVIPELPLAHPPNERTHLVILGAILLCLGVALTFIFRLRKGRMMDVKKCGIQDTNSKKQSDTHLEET
human CTLA-4 (human), sequence (P16410 36-223): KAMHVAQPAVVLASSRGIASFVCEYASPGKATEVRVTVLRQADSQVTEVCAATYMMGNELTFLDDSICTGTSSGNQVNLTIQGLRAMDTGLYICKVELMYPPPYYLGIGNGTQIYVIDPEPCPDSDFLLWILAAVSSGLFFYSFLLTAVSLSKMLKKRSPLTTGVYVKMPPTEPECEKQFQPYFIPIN

As for “CD80 E35D/D46E/M47I/T62A/V68M/L85M/Y87C IgV-Fc (Fc fusion)”, in assay [1], the MFI at 33.3 nM came out at 17000 MFI.

As to “CD80 E35D/D46E/M47L/V68M/T79M/L85M/L97Q IgV-Fc (Fc fusion)”, the Fold change to WT CD80 was 0.5 fold in assay [2] and 89.7 fold in assay [3]. Moreover, the MFI at 33.3 nM worked out at 14 MFI in assay [2], 4620 MFI in assay [3] and 96 MFI in assay [1].

Regarding “CD80 E35D/D46E/M47V/V68M/L85Q IgV-Fc (Fc fusion)”, the figures for the MFI at 33.3 nM in assay [3] and in assay [1] were 1720 MFI and 15500 MFI, respectively.

In the case of “CD80 E35D/M47I/T62S/L85Q IgV-Fc (inert) (Fc fusion)”, the Jurkat/IL2 reporter RLU at 50 nM, K562/OKT3/PD-L1 aAPC in assay [4] and in assay [5] was 1570 RLU in each case.

“CD80 E35D/M47I/Y87Q/K89E IgV-Fc (inert) (Fc fusion)”: the Jurkat/IL2 reporter RLU at 50 nM, K562/OKT3/PD-L1 aAPC in assay [4] and in assay [5] was 1580 RLU throughout.

For the substance “CD80 E35D/M47L/A71G/L85M/F92Y IgV-Fc (inert) (Fc fusion)”, the Jurkat/IL2 reporter RLU at 50 nM, K562/OKT3/PD-L1 aAPC in assay [4] and in assay [5] was 1320 RLU in each case.

For “CD80 E35D/M47V/A71G IgV-Fc (inert) (Fc fusion)”, the Jurkat/IL2 reporter RLU at 50 nM, K562/OKT3/PD-L1 aAPC in assay [4] and in assay [5] was 1190 RLU each time.

Take “CD80 E35D/M47V/A71G/E88D IgV-Fc (inert) (Fc fusion)”: the Jurkat/IL2 reporter RLU at 50 nM, K562/OKT3/PD-L1 aAPC in assay [4] and in assay [5] was 1220 RLU in each case.

Turning to “CD80 E35D/M47V/N48K/V68M/K89N IgV-Fc (inert) (Fc fusion)”, the Jurkat/IL2 reporter RLU at 50 nM, K562/OKT3/PD-L1 aAPC in assay [4] and in assay [5] was 1440 RLU in each case.

Regarding “CD80 E35D/M47V/N48T/L85Q IgV-Fc (inert) (Fc fusion)”, the Jurkat/IL2 reporter RLU at 50 nM, K562/OKT3/PD-L1 aAPC in assay [4] and in assay [5] was 897 RLU each time.

On to “CD80 E35D/M47V/V68M/L85M IgV-Fc (Fc fusion)”, for which the MFI at 33.3 nM in assay [2] turned out to be 201 MFI; in assay [3], 9180 MFI; in assay [1], 16000 MFI.

Turning to “CD80 E35D/M47V/V68M/L85M/Y87D IgV-Fc (Fc fusion)”, the MFI at 33.3 nM in assay [3] was 1720 MFI; in assay [1] it was 13900 MFI.

On to “CD80 E35D/T41S/M43I/A71G/D90G IgV-Fc (inert) (Fc fusion)”, for which the Jurkat/IL2 reporter RLU at 50 nM, K562/OKT3/PD-L1 aAPC in assay [4] and in assay [5] was 1120 RLU each time.

As to “CD80 E35D/T41S/M43I/M47L/A71G IgV-Fc (inert) (Fc fusion)”, the Jurkat/IL2 reporter RLU at 50 nM, K562/OKT3/PD-L1 aAPC in assay [4] and in assay [5] was 1540 RLU each time.

Turning to “CD80 E35D/T41S/M43I/M47V/A71G IgV-Fc (inert) (Fc fusion)”, the Jurkat/IL2 reporter RLU at 50 nM, K562/OKT3/PD-L1 aAPC in assay [4] and in assay [5] was 1270 RLU throughout.

On to “CD80 E35D/T41S/M43V/M47I/L70M/A71G IgV-Fc (inert) (Fc fusion)”, for which the Jurkat/IL2 reporter RLU at 50 nM, K562/OKT3/PD-L1 aAPC in assay [4] and in assay [5] was 1670 RLU each time.

As for “CD80 E35D/T41S/M47V/A71G/K89N IgV-Fc (inert) (Fc fusion)”, the Jurkat/IL2 reporter RLU at 50 nM, K562/OKT3/PD-L1 aAPC in assay [4] and in assay [5] was 1020 RLU each time.

As for “CD80 E35D/T41S/M47V/L97Q IgV-Fc (inert) (Fc fusion)”, the Jurkat/IL2 reporter RLU at 50 nM, K562/OKT3/PD-L1 aAPC in assay [4] and in assay [5] was 594 RLU in each case.

As for “CD80 E35D/Y53H/A71G/D90G/L97R IgV-Fc (inert) (Fc fusion)”, the Jurkat/IL2 reporter RLU at 50 nM, K562/OKT3/PD-L1 aAPC in assay [4] and in assay [5] was 1720 RLU throughout.

Turning to “CD80 H18Y/A26E/E35D/M47L/L85Q/D90G IgV-Fc (inert) (Fc fusion)”, the Jurkat/IL2 reporter RLU at 50 nM, K562/OKT3/PD-L1 aAPC in assay [4] and in assay [5] was 1510 RLU each time.

“CD80 H18Y/E35D/M38I/M47L/V68M/L85M IgV-Fc (Fc fusion)”: the Fold change to WT CD80 came to 0.5 fold in assay [2] and 69.7 fold in assay [3]. Moreover, the MFI at 33.3 nM was 16.7 MFI in assay [2], 3590 MFI in assay [3] and 139 MFI in assay [1].

On to “CD80 H18Y/E35D/M47I/V68M/Y87N IgV-Fc (Fc fusion)”, for which the MFI at 33.3 nM worked out at 4040 MFI in assay [2], 15000 MFI in assay [3] and 18600 MFI in assay [1].

“CD80 H18Y/E35D/M47L/V68M/A71G/L85M IgV-Fc (Fc fusion)”: the MFI at 33.3 nM in assay [3] turned out to be 18700 MFI; in assay [1] it was 19500 MFI.

Consider “CD80 H18Y/E35D/M47L/Y53F/V68M/A71G IgV-Fc (Fc fusion)”, for which the Fold change to WT CD80 in assay [2] was 0.5 fold; in assay [3], 99.1 fold. In addition, the results for the MFI at 33.3 nM in assay [2], in assay [3] and in assay [1] were 15.7 MFI, 5100 MFI and 146 MFI, respectively.

As to “CD80 H18Y/E35D/M47L/Y53F/V68M/A71G/K93R/E95V IgV-Fc (Fc fusion)”, the MFI at 33.3 nM came to 334 MFI in assay [2], 23400 MFI in assay [3] and 18400 MFI in assay [1]. This substance also came in with a Fold change to WT CD80 in assay [1] of 10.5 fold.

“CD80 H18Y/E35D/N48K IgV-Fc (inert) (Fc fusion)”: the Jurkat/IL2 reporter RLU at 50 nM, K562/OKT3/PD-L1 aAPC in assay [4] and in assay [5] was 1230 RLU throughout.

As to “CD80 H18Y/E35D/V68M/A71G/R94Q/E95V IgV-Fc (Fc fusion)”, the values for the MFI at 33.3 nM in assay [2], in assay [3] and in assay [1] were 16 MFI, 15000 MFI and 18300 MFI, respectively.

Regarding “CD80 H18Y/V22A/E35D/M47V/T62S/A71G IgV-Fc (inert) (Fc fusion)”, the Jurkat/IL2 reporter RLU at 50 nM, K562/OKT3/PD-L1 aAPC in assay [4] and in assay [5] was 1380 RLU in each case.

Turning to “CD80 I30V/E35D/M47V/A71G/A91V IgV-Fc (inert) (Fc fusion)”, the Jurkat/IL2 reporter RLU at 50 nM, K562/OKT3/PD-L1 aAPC in assay [4] and in assay [5] was 1500 RLU each time.

Consider “CD80 Q27H/E35D/D46V/M47L/A71G IgV-Fc (inert) (Fc fusion)”, for which the Jurkat/IL2 reporter RLU at 50 nM, K562/OKT3/PD-L1 aAPC in assay [4] and in assay [5] was 978 RLU throughout.

With “CD80 Q27H/E35D/M47I/L85Q/D90G IgV-Fc (inert) (Fc fusion)”, the Jurkat/IL2 reporter RLU at 50 nM, K562/OKT3/PD-L1 aAPC in assay [4] and in assay [5] was 1310 RLU throughout.

Consider “CD80 Q27L/Q33L/E35D/T41S/M47V/N48K/V68M/L85M IgV-Fc (Fc fusion)”, for which the Fold change to WT CD80 in assay [2] was determined as 0.5 fold; in assay [3], 320 fold. The results for the MFI at 33.3 nM in assay [2], in assay [3] and in assay [1] were 15 MFI, 16500 MFI and 178 MFI, respectively.

Take “CD80 Q33L/E35D/M43I/Y53F/T62S/L85Q IgV-Fc (inert) (Fc fusion)”: the Jurkat/IL2 reporter RLU at 50 nM, K562/OKT3/PD-L1 aAPC in assay [4] and in assay [5] was 168 RLU in each case.

Consider “CD80 Q33L/E35D/M47I/N48D/A71G IgV-Fc (inert) (Fc fusion)”, for which the Jurkat/IL2 reporter RLU at 50 nM, K562/OKT3/PD-L1 aAPC in assay [4] and in assay [5] was 213 RLU each time.

Take “CD80 Q33L/E35D/M47V/T62S/V68M/L85M IgV-Fc (Fc fusion)”: the MFI at 33.3 nM amounted to 15 MFI in assay [2] and 86 MFI in assay [1].

For the substance “CD80 Q33R/E35D/M38I/M47L/V68M IgV-Fc (Fc fusion)”, the Fold change to WT CD80 in assay [2] is 0.5 fold; in assay [3] it was 320 fold. Besides, the values for the MFI at 33.3 nM in assay [2], in assay [3] and in assay [1] were 15 MFI, 16500 MFI and 107 MFI, respectively.

Take “CD80 Q33R/E35D/M47V/N48K/L85M/F92L IgV-Fc (inert) (Fc fusion)”: the Jurkat/IL2 reporter RLU at 50 nM, K562/OKT3/PD-L1 aAPC in assay [4] and in assay [5] was 215 RLU each time.

On to “CD80 R29C/E35D/M47L/V68M/A71G/L85M IgV-Fc (Fc fusion)”, for which the MFI at 33.3 nM was 16 MFI in assay [2] and 91 MFI in assay [1].

Regarding “CD80 R29H/E35D/M43V/M47I/I49V IgV-Fc (inert) (Fc fusion)”, the Jurkat/IL2 reporter RLU at 50 nM, K562/OKT3/PD-L1 aAPC in assay [4] and in assay [5] was 227 RLU throughout.

For the substance “CD80 S21P/E35D/K37E/D46E/M47I/V68M IgV-Fc (Fc fusion)”, the MFI at 33.3 nM in assay [2] was 540 MFI; in assay [1], 20600 MFI.

As to “CD80 S21P/E35D/K37E/D46E/M47I/V68M/R94L IgV-Fc (Fc fusion)”, the MFI at 33.3 nM in assay [2] is 284 MFI; in assay [1], 20100 MFI.

“CD80 T13R/Q27L/Q33L/E35D/T41S/M47V/N48K/V68M/L85M IgV-Fc (Fc fusion)”: the results for the Fold change to WT CD80 in assay [2] and in assay [3] were 0.5 fold and 63.5 fold, respectively. The MFI at 33.3 nM in assay [2] came to 14.6 MFI; in assay [3] it was 3270 MFI; in assay [1] it was 109 MFI.

For the substance “CD80 T28Y/Q33H/E35D/D46V/M47I/A71G IgV-Fc (inert) (Fc fusion)”, the Jurkat/IL2 reporter RLU at 50 nM, K562/OKT3/PD-L1 aAPC in assay [4] and in assay [5] was 580 RLU each time.

For “CD80 V22A/E35D/M47I/Y87N IgV-Fc (inert) (Fc fusion)”, the Jurkat/IL2 reporter RLU at 50 nM, K562/OKT3/PD-L1 aAPC in assay [4] and in assay [5] was 1390 RLU throughout.

In the case of “CD80 V22D/E24D/E35D/M47V/V68M IgV-Fc (Fc fusion)”, the results for the MFI at 33.3 nM in assay [2] and in assay [1] were 191 MFI and 16900 MFI, respectively.

With “CD80 V22D/E35D/M47L/L70M/L97Q IgV-Fc (inert) (Fc fusion)”, the Jurkat/IL2 reporter RLU at 50 nM, K562/OKT3/PD-L1 aAPC in assay [4] and in assay [5] was 1540 RLU in each case.

In the case of “CD80 V22D/E35D/M47L/L85Q IgV-Fc (inert) (Fc fusion)”, the Jurkat/IL2 reporter RLU at 50 nM, K562/OKT3/PD-L1 aAPC in assay [4] and in assay [5] was 1140 RLU in each case.

As for “CD80 V22L/Q27H/E35D/M47I/A71G IgV-Fc (inert) (Fc fusion)”, the Jurkat/IL2 reporter RLU at 50 nM, K562/OKT3/PD-L1 aAPC in assay [4] and in assay [5] was 1120 RLU each time.
